Tests used:
[1] = target: T1, Recombinant human Flt-1/Fc chimera (R&D Systems) (human, UniProt P17948-2 27-687, limits assumed); assay: receptor binding assay on immobilized Flt-1/Fc; reference: the peptide
[2] = target: T1, Recombinant human Flt-1/Fc chimera (R&D …); assay: receptor binding assay on immobilized Flt-1/Fc, bound peroxidase activity
[3] = target: T1, Recombinant human Flt-1/Fc chimera (R&D …); assay: competitive receptor binding assay on immobilized Flt-1/Fc; VEGF against 30 µM fluorescein labeled peptide (SEQ ID NO: 3)
Protocol: The cocktails were allowed to equilibrate for 4 hours at room temperature. After incubation, micrititer plates were washed with buffer B for 10 times. […] The results are represented as average of triplicate measurement ±SD.

[4] = target: T1, Recombinant human Flt-1/Fc chimera (R&D …); assay: phage ELISA on Flt-1/Fc captured by anti-Fc, anti-M13-HRP

T1 sequence (P17948 other isoform, or with tags, fused parts or gaps mutant limits assumed): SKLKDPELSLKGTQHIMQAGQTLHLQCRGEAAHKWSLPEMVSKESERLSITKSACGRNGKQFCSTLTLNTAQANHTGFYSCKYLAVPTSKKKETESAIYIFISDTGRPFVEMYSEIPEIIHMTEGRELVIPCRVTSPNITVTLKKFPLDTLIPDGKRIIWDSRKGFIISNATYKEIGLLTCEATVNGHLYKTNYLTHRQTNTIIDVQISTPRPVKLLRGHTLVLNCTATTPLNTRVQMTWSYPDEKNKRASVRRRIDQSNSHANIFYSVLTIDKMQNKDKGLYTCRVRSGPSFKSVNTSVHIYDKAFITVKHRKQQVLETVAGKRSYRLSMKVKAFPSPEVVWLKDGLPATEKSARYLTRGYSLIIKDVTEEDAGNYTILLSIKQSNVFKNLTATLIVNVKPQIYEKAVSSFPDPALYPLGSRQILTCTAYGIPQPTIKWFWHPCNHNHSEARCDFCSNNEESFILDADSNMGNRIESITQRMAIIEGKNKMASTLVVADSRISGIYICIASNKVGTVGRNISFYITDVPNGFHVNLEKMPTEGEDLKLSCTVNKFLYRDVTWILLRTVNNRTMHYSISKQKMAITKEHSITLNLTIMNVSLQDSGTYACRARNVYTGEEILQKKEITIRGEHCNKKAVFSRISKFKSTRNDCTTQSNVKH

B1: Conjugate NO.: 1, peroxidase-peptide conjugate (other, horseradish)
chain: QLTPTFYDNSCPNVSNIVRDTIVNELRSDPRIAASILRLHFHDCFVNGCDASILLDNTTSFRTEKDAFGNANSARGFPVIDRMKAAVESACPRTVSCADLLTIAAQQSVTLAGGPSWRVPLGRRDSLQAFLDLANANLPAPFFTLPQLKDSFRNVGLNRSSDLVALSGGHTFGKNQCRFIMDRLYNFSNTGLPDPTLNTTYLQTLRGLCPLNGNLSALVDFDLRTPTIFDNKYYVNLEEQKGLIQSDQELFSSPNATDTIPLVRSFANSTQTFFNAFVEAMDRMGNITPLTGTQGQIRLNCRVVNSNS
peptide: CNGYEIEWYSWVTHGMY
modifications: C-terminal amide (NH2); Cys 1 disulfide-linked through SPDP to peroxidase; activated with SPDP (N-succinimidyl-3-(2-pyridylthio)propionate), disulfide-linked to the peptide
notes: also called Conjugate ID NO:1; Conjuguate ID NO 1
fold of half-maximum binding concentration against the peptide [1]: 50 fold
EC50 [2]: 0.1 µM

B2: human recombinant VEGF (R&D Systems) (ligand, UniProt P15692-4 27-191, looked up)
chain: APMAEGGGQNHHEVVKFMDVYQRSYCHPIETLVDIFQEYPDEIEYIFKPSCVPLMRCGGCCNDEGLECVPTEESNITMQIMRIKPHQGQHIGEMSFLQHNKCECRPKKDRARQENPCGPCSERRKHLFVQDPQTCKCSCKNTDSRCKARQLELNERTCRCDKPRR
notes: also called vascular endothelial factor
IC50 [3]: 0.005 µM

B3: phage clone V40 (control peptide insert encoded by ONV40, SEQ ID NO: 11) (other, bacteriophage M13)
chain: FVGGWLVPEDERLYPEAETVESCLAKPHTENSFTNVWKDDKTLDRYANYEGCLWNATGVVVCTGDETQCYGTWVPIGLAIPENEGGGSEGGGSEGGGSEGGGTKPPEYGDTPIPGYTYINPLDGTYPPGTEQNPANPNPSLEESQPLNTFMFQNNRFRNRQGALTVYTGTVTQGTDPVKTYYQYTPVSSKAMYDAYWNGKFRDCAFHSGFNEDPFVCEYQGQSSDLPQPPVNAGGGSGGGSGGGSEGGGSEGGGSEGGGSEGGGSGGGSGSGDFDYEKMANANKGAMTENADENALQSDAKGKLDSVATDYGAAIDGFIGDVSGLANGNGATGDFAGSNSQMAQVGDGDNSPLMNNFRQYLPSLPQSVECRPFVFSAGKPYEFSIDCDKINLFRGVFAFLLYVATFMYVFSTFANILRNKES
notes: Clone label V40 tied to oligonucleotide ONV40 by its name only
ABSORBANCE, A 405 [4]: 0.025 A405

B4: phage clone V5.10 (control peptide insert encoded by ONV5.10, SEQ ID NO: 10) (other, bacteriophage M13)
chain: PEPEVRLSPPGHIQSLAETVESCLAKPHTENSFTNVWKDDKTLDRYANYEGCLWNATGVVVCTGDETQCYGTWVPIGLAIPENEGGGSEGGGSEGGGSEGGGTKPPEYGDTPIPGYTYINPLDGTYPPGTEQNPANPNPSLEESQPLNTFMFQNNRFRNRQGALTVYTGTVTQGTDPVKTYYQYTPVSSKAMYDAYWNGKFRDCAFHSGFNEDPFVCEYQGQSSDLPQPPVNAGGGSGGGSGGGSEGGGSEGGGSEGGGSEGGGSGGGSGSGDFDYEKMANANKGAMTENADENALQSDAKGKLDSVATDYGAAIDGFIGDVSGLANGNGATGDFAGSNSQMAQVGDGDNSPLMNNFRQYLPSLPQSVECRPFVFSAGKPYEFSIDCDKINLFRGVFAFLLYVATFMYVFSTFANILRNKES
notes: Clone label V5.10 tied to oligonucleotide ONV5.10 by its name only
ABSORBANCE, A 405 [4]: 0.039 A405
